± gives the uncertainty stated by the source.
B1: CD2-associated protein, residues 1 to 59; numbered along this chain, Q9Y5K6 (parent)
chain: MVDYIVEYDYDAVHDDELTIRVGEIIRNVKKLQEEGWLEGELNGRRGMFPDNFVKEIKR

Variants of: B1
Assay: abundance fitness (aPCA) (normalised: wild type 0, dead -1); higher = more abundant; growth selection in yeast, the domain comes from the species named
Details: Homo sapiens

MVDYIVEYDYDAVHDDELTIRVGEIIRNVKKLQEEGWLEKELNGRRGMFPDNFVKEIKR [G40K] and MVDYIVEYDYDAVHDDELTIRVGEIIRNVKKLQEEGWLEAELNGRRGMFPDNFVKEIKR [G40A] are within error of each other in abundance fitness: -0.541 ± 0.18 for the first, -0.999 ± 0.4 for the second.

First: MVDYIVEYDYDAVHDDELTIRVGEIIRNVKKLQEEGWLEGELNVRRGMFPDNFVKEIKR [G44V]
Second: MVDYIVEYDYDAVHDDELTIRVGEIIRNVKKLQEEGWLEGELNRRRGMFPDNFVKEIKR [G44R]
The abundance fitness of the first is lower: -0.843 ± 0.31 for the first, -0.133 ± 0.32 for the second.

MVDYIVEYDYDAVHDDELTIRVGEIIRNVKKLQEEGWLEGELNSRRGMFPDNFVKEIKR [G44S] and MVDYIVEYDYDAVHDDELTIRVGEIIRNVKKLQEEGWLEGELNLRRGMFPDNFVKEIKR [G44L] are within error of each other in abundance fitness: -0.592 ± 0.22 for the first, -0.547 ± 0.36 for the second.

MVDYIVEYDYDAVHDDELTIRVGEIIRNVKKLQEEGWLEGELNHRRGMFPDNFVKEIKR [G44H] and MVDYIVEYDYDAVHDDELTIRVGEIIRNVKKLQEEGWLEGELNGRSGMFPDNFVKEIKR [R46S] are within error of each other in abundance fitness: -0.549 ± 0.3 for the first, -0.402 ± 0.13 for the second.

Going from MVDYIVEYDYDAVHDDELTIRVGEIIRNVKKLQEEGWLEGELNGRMGMFPDNFVKEIKR [R46M] to MVDYIVEYDYDAVHDDELTIRVGEIIRNVKKLQEEGWLEGELNGRWGMFPDNFVKEIKR [R46W], the abundance fitness falls from -0.066 ± 0.2 to -0.434 ± 0.16.

MVDYIVEYDYDAVHDDELTIRVGEIIRNVKKLQEEGWLEGELNGRKGMFPDNFVKEIKR [R46K] and MVDYIVEYDYDAVHDDELTIRVGEIIRNVKKLQEEGWLEGELNGRTGMFPDNFVKEIKR [R46T] are within error of each other in abundance fitness: -0.181 ± 0.17 for the first, -0.082 ± 0.13 for the second.

MVDYIVEYDYDAVHDDELTIRVGEIIRNVKKLQEEGWLEGELNGRFGMFPDNFVKEIKR [R46F] and MVDYIVEYDYDAVHDDELTIRVGEIIRNVKKLQEEGWLEGELNGRLGMFPDNFVKEIKR [R46L] are within error of each other in abundance fitness: -0.346 ± 0.2 for the first, -0.245 ± 0.12 for the second.

MVDYIVEYDYDAVHDDELTIRVGEIIRNVKKLQEEGWLEGELNGRQGMFPDNFVKEIKR [R46Q] and MVDYIVEYDYDAVHDDELTIRVGEIIRNVKKLQEEGWLEGELNGREGMFPDNFVKEIKR [R46E] are within error of each other in abundance fitness: -0.301 ± 0.21 for the first, -0.445 ± 0.26 for the second.

MVDYIVEYDYDAVHDDELTIRVGEIIRNVKKLQEEGWLEGELNGRIGMFPDNFVKEIKR [R46I] and MVDYIVEYDYDAVHDDELTIRVGEIIRNVKKLQEEGWLEGELNGRCGMFPDNFVKEIKR [R46C] are within error of each other in abundance fitness: -0.243 ± 0.37 for the first, -0.363 ± 0.2 for the second.

MVDYIVEYDYDAVHDDELTIRVGEIIRNVKKLQEEGWLEGMLNGRRGMFPDNFVKEIKR [E41M] and MVDYIVEYDYDAVHDDELTIRVGEIIRNVKKLQEEGWLEGYLNGRRGMFPDNFVKEIKR [E41Y] are within error of each other in abundance fitness: -0.312 ± 0.2 for the first, -0.532 ± 0.28 for the second.

MVDYIVEYDYDAVHDDELTIRVGEIIRNVKKLQEEGWLEGWLNGRRGMFPDNFVKEIKR [E41W] and MVDYIVEYDYDAVHDDELTIRVGEIIRNVKKLQEEGWLEGILNGRRGMFPDNFVKEIKR [E41I] are within error of each other in abundance fitness: -0.31 ± 0.14 for the first, -0.191 ± 0.25 for the second.

MVDYIVEYDYDAVHDDELTIRVGEIIRNVKKLQEEGWLEGVLNGRRGMFPDNFVKEIKR [E41V] and MVDYIVEYDYDAVHDDELTIRVGEIIRNVKKLQEEGWLEGNLNGRRGMFPDNFVKEIKR [E41N] are within error of each other in abundance fitness: -0.535 ± 0.22 for the first, -0.361 ± 0.49 for the second.

MVDYIVEYDYDAVHDDELTIRVGEIIRNVKKLQEEGWLEGDLNGRRGMFPDNFVKEIKR [E41D] and MVDYIVEYDYDAVHDDELTIRVGEIIRNVKKLQEEGWLEGSLNGRRGMFPDNFVKEIKR [E41S] are within error of each other in abundance fitness: -0.349 ± 0.27 for the first, -0.013 ± 0.11 for the second.

MVDYIVEYDYDAVHDDELTIRVGEIIRNVKKLQEEGWLEGQLNGRRGMFPDNFVKEIKR [E41Q] and MVDYIVEYDYDAVHDDELTIRVGEIIRNVKKLQEEGWLEGRLNGRRGMFPDNFVKEIKR [E41R] are within error of each other in abundance fitness: -0.352 ± 0.18 for the first, -0.306 ± 0.09 for the second.

MVDYIVEYDYDAVHDDELTIRVGEIIRNVKKLQEEGWLEGALNGRRGMFPDNFVKEIKR [E41A] and MVDYIVEYDYDAVHDDELTIRVGEIIRNVKKLQEEGWLEGELEGRRGMFPDNFVKEIKR [N43E] are within error of each other in abundance fitness: -0.388 ± 0.33 for the first, -0.192 ± 0.45 for the second.

MVDYIVEYDYDAVHDDELTIRVGEIIRNVKKLQEEGWLEGELVGRRGMFPDNFVKEIKR [N43V] and MVDYIVEYDYDAVHDDELTIRVGEIIRNVKKLQEEGWLEGELTGRRGMFPDNFVKEIKR [N43T] are within error of each other in abundance fitness: -0.694 ± 0.18 for the first, -0.62 ± 0.12 for the second.

MVDYIVEYDYDAVHDDELTIRVGEIIRNVKKLQEEGWLEGELCGRRGMFPDNFVKEIKR [N43C] and MVDYIVEYDYDAVHDDELTIRVGEIIRNVKKLQEEGWLEGELMGRRGMFPDNFVKEIKR [N43M] are within error of each other in abundance fitness: -0.383 ± 0.11 for the first, -0.395 ± 0.15 for the second.

First: MVDYIVEYDYDAVHDDELTIRVGEIIRNVKKLQEEGWLEGELWGRRGMFPDNFVKEIKR [N43W]
Second: MVDYIVEYDYDAVHDDELTIRVGEIIRNVKKLQEEGWLEGELRGRRGMFPDNFVKEIKR [N43R]
The abundance fitness of the first is lower: -0.562 ± 0.26 for the first, -0.082 ± 0.089 for the second.

MVDYIVEYDYDAVHDDELTIRVGEIIRNVKKLQEEGWLEGELGGRRGMFPDNFVKEIKR [N43G] and MVDYIVEYDYDAVHDDELTIRVGEIIRNVKKLQEEGWLEGELHGRRGMFPDNFVKEIKR [N43H] are within error of each other in abundance fitness: -0.057 ± 0.15 for the first, 0.145 ± 0.15 for the second.

MVDYIVEYDYDAVHDDELTIRVGEIIRNVKKLQEEGWLEGELQGRRGMFPDNFVKEIKR [N43Q] and MVDYIVEYDYDAVHDDELTIRVGEIIRNVKKLQEEGWLEGELYGRRGMFPDNFVKEIKR [N43Y] are within error of each other in abundance fitness: -0.287 ± 0.12 for the first, -0.072 ± 0.11 for the second.

MVDYIVEYDYDAVHDDELTIRVGEIIRNVKKLQEEGWLEGELSGRRGMFPDNFVKEIKR [N43S] and MVDYIVEYDYDAVHDDELTIRVGEIIRNVKKLQEEGWLEGELKGRRGMFPDNFVKEIKR [N43K] are within error of each other in abundance fitness: -0.221 ± 0.051 for the first, -0.149 ± 0.12 for the second.

MVDYIVEYDYDAVHDDELTIRVGEIIRNVKKLQEEGWLEGELLGRRGMFPDNFVKEIKR [N43L] and MVDYIVEYDYDAVHDDELTIRVGEIIRNVKKLQEEGWLEGELFGRRGMFPDNFVKEIKR [N43F] are within error of each other in abundance fitness: -0.323 ± 0.06 for the first, -0.409 ± 0.15 for the second.

MVDYIVEYDYDAVHDDELTIRVGEIIRNVKKLQEEGWLEGELPGRRGMFPDNFVKEIKR [N43P] gave an abundance fitness of -0.653 ± 0.2.

— the Human Domainome abundance scans (Beltran et al. 2025)
